Measured values reported in PMC4351158 (Structure (London, England : 1993), 2015).
Changes are numbered by the printed parent chain. Where no end group is shown, it is not given here. fluorescein = fluorescein, a fluorescent label on the peptide N-terminus

How the values were obtained:
Test in all cases: fluorescence polarisation
DegS R178A = biological target: T1, DegS R178A (E. coli, UniProt P0AEE3 27-355, R178A)
T1 sequence (looked up): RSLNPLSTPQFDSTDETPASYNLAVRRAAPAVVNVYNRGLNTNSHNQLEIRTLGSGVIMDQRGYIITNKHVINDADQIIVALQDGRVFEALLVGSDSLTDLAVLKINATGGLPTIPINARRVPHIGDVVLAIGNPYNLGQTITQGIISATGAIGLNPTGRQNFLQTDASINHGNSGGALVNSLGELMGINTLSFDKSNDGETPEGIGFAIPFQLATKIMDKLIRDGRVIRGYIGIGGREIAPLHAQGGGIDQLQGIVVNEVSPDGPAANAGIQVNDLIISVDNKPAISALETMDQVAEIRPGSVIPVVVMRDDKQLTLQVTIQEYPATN

DegS F220A = biological target: T2, DegS F220A (E. coli, UniProt P0AEE3 27-355, F220A)
T2 sequence (looked up): T1 sequence (looked up) with A152R, F194A

DegS P161A/H198P = biological target: T3, DegS P161A/H198P (E. coli, UniProt P0AEE3 27-355, P161A | H198P)
T3 sequence (looked up): T1 sequence (looked up) with P135A, A152R, H172P

DegS T169A/H198P = biological target: T4, DegS T169A/H198P (E. coli, UniProt P0AEE3 27-355, T169A | H198P)
T4 sequence (looked up): T1 sequence (looked up) with T143A, A152R, H172P

DegS T167V/H198P = biological target: T5, DegS T167V/H198P (E. coli, UniProt P0AEE3 27-355, T167V | H198P)
T5 sequence (looked up): T1 sequence (looked up) with T141V, A152R, H172P

- Kd (DegS R178A): 3600 ± 200 nM
- Kd (DegS F220A): 2100 ± 100 nM
- Kd (DegS P161A/H198P): 2500 ± 400 nM
- Kd (DegS T169A/H198P): 2000 ± 200 nM
- Kd (DegS T167V/H198P): 1900 ± 700 nM
Binder: fluorescein-DNRDGNVYYF [fluorescent OMP peptide fluorescein-DNRDGNVYYF]
